Experimental data taken from patent publication US20230035798A1 (CAPELLA BIOSCIENCE, published 2023).
Numbering of substitutions follows the chain as printed. Names may count otherwise.

B1: 3B04_var8 (antibody, human IgG4, V domains shown)
VH: QVQLVQSGAEVKKPGASVKVSCKASGYTFTDYEMHWVRQAPGQGLEWMGEIDPETGDTAYAQKFQGRVTLTADKSTSTAYMELSSLRSEDTAVYYCSRETDYFFDYWGQGTLVTVSS
VL: DIQMTQSPSSLSASVGDRVTITCGASENIYGALNWYQRKQGKAPKLLIYGATNLADGVPSRFSGSGSGRDYTLTISSLQPEDFATYYCQNVLTTPWTFGQGTKLEIKR
notes: human IgG4 (S241P, L248E, Kabat); also called 3B04 VL2VH4 (var8)
B2: 3D12_var13 (antibody, human IgG4, V domains shown)
VH: B1 VH with G26D, Y32S, M34I, M48I, D57G, A61N, Q65K, V68A
VL: B1 VL with G24R, R38Q, Q40P, D56E, F83V, T93S
notes: human IgG4 (S241P, L248E, Kabat); also called 3D12 VL4VH1 (var13)
B3: 3B04_var1 (antibody, human IgG4, V domains shown)
VH: B1 VH with M48I, A61S, Q65K, V68A, L83F
VL: B1 VL with K45Q, P59S
notes: human IgG4 (S241P, L248E, Kabat); also called 3B04 VL1VH1 (var1)
B4: 3D12_var10 (antibody, human IgG4, V domains shown)
VH: B1 VH with G26D, Y32S, M34I, M48I, D57G, A61N
VL: B1 VL with R38Q, Q40P, F83V, T93S
notes: human IgG4 (S241P, L248E, Kabat); also called 3D12 VL3VH2 (var10)
B5: 3D12_var14 (antibody, human IgG4, V domains shown)
VH: B1 VH with G26D, Y32S, M34I, M48I, D57G, A61N
VL: B1 VL with G24R, R38Q, Q40P, D56E, F83V, T93S
notes: human IgG4 (S241P, L248E, Kabat); also called 3D12 VL4VH2 (var14)
B6: 3B04_var7 (antibody, human IgG4, V domains shown)
VH: B1 VH with L83F
VL: B1 VL
notes: human IgG4 (S241P, L248E, Kabat); also called 3B04 VL2VH3 (var7)
B7: 3B04_var3 (antibody, human IgG4, V domains shown)
VH: B1 VH with L83F
VL: B1 VL with K45Q, P59S
notes: human IgG4 (S241P, L248E, Kabat); also called 3B04 VL1VH3 (var3)
B8: 3B04_var13 (antibody, human IgG4, V domains shown)
VH: B1 VH with M48I, A61S, Q65K, V68A, L83F
VL: B1 VL with G24R, R38Q, Q40P, D56E
notes: human IgG4 (S241P, L248E, Kabat); also called 3B04 VL4VH1 (var13)
B9: 3D12_var12 (antibody, human IgG4, V domains shown)
VH: B1 VH with Y32S, D57G
VL: B1 VL with R38Q, Q40P, F83V, T93S
notes: human IgG4 (S241P, L248E, Kabat); also called 3D12 VL3VH4 (var12)
B10: 3D12_var8 (antibody, human IgG4, V domains shown)
VH: B1 VH with Y32S, D57G
VL: B1 VL with F83V, T93S
notes: human IgG4 (S241P, L248E, Kabat); also called 3D12 VL2VH4 (var8)
B11: 3B04_var12 (antibody, human IgG4, V domains shown)
VH: B1 VH
VL: B1 VL with R38Q, Q40P
notes: human IgG4 (S241P, L248E, Kabat); also called 3B04 VL3VH4 (var12)
B12: 3D12_var3 (antibody, human IgG4, V domains shown)
VH: B1 VH with G26D, Y32S, M34I, D57G
VL: B1 VL with K45Q, P59S, F83V, T93S
notes: human IgG4 (S241P, L248E, Kabat); also called 3D12 VL1VH3 (var3)
B13: 3B04_var11 (antibody, human IgG4, V domains shown)
VH: B1 VH with L83F
VL: B1 VL with R38Q, Q40P
notes: human IgG4 (S241P, L248E, Kabat); also called 3B04 VL3VH3 (var11)
B14: 3D12_var7 (antibody, human IgG4, V domains shown)
VH: B1 VH with G26D, Y32S, M34I, D57G
VL: B1 VL with F83V, T93S
notes: human IgG4 (S241P, L248E, Kabat); also called 3D12 VL2VH3 (var7)
B15: 3B04_var2 (antibody, human IgG4, V domains shown)
VH: B1 VH with M48I, A61S, L83F
VL: B1 VL with K45Q, P59S
notes: human IgG4 (S241P, L248E, Kabat); also called 3B04 VL1VH2 (var2)
B16: 3B04_var9 (antibody, human IgG4, V domains shown)
VH: B1 VH with M48I, A61S, Q65K, V68A, L83F
VL: B1 VL with R38Q, Q40P
notes: human IgG4 (S241P, L248E, Kabat); also called 3B04 VL3VH1 (var9)
B17: 3B04_var5 (antibody, human IgG4, V domains shown)
VH: B1 VH with M48I, A61S, Q65K, V68A, L83F
VL: B1 VL
notes: human IgG4 (S241P, L248E, Kabat); also called 3B04 VL2VH1 (var5)
B18: 3D12_var16 (antibody, human IgG4, V domains shown)
VH: B1 VH with Y32S, D57G
VL: B1 VL with G24R, R38Q, Q40P, D56E, F83V, T93S
notes: human IgG4 (S241P, L248E, Kabat); also called 3D12 VL4VH4 (var16)
B19: 3B04_var6 (antibody, human IgG4, V domains shown)
VH: B1 VH with M48I, A61S, L83F
VL: B1 VL
notes: human IgG4 (S241P, L248E, Kabat); also called 3B04 VL2VH2 (var6)
B20: 3B04_var16 (antibody, human IgG4, V domains shown)
VH: B1 VH
VL: B1 VL with G24R, R38Q, Q40P, D56E
notes: human IgG4 (S241P, L248E, Kabat); also called 3B04 VL4VH4 (var16); 3B04 variant 16
B21: 3D12_var9 (antibody, human IgG4, V domains shown)
VH: B1 VH with G26D, Y32S, M34I, M48I, D57G, A61N, Q65K, V68A
VL: B1 VL with R38Q, Q40P, F83V, T93S
notes: human IgG4 (S241P, L248E, Kabat); also called 3D12 VL3VH1 (var9)
B22: 3D12_var4 (antibody, human IgG4, V domains shown)
VH: B1 VH with Y32S, D57G
VL: B1 VL with K45Q, P59S, F83V, T93S
notes: human IgG4 (S241P, L248E, Kabat); also called 3D12 VL1VH4 (var4)
B23: 3D12_var1 (antibody, human IgG4, V domains shown)
VH: B1 VH with G26D, Y32S, M34I, M48I, D57G, A61N, Q65K, V68A
VL: B1 VL with K45Q, P59S, F83V, T93S
notes: human IgG4 (S241P, L248E, Kabat); also called 3D12 VL1VH1 (var1)
B24: 3D12_var5 (antibody, human IgG4, V domains shown)
VH: B1 VH with G26D, Y32S, M34I, M48I, D57G, A61N, Q65K, V68A
VL: B1 VL with F83V, T93S
notes: human IgG4 (S241P, L248E, Kabat); also called 3D12 VL2VH1 (var5)
B25: 3D12_var11 (antibody, human IgG4, V domains shown)
VH: B1 VH with G26D, Y32S, M34I, D57G
VL: B1 VL with R38Q, Q40P, F83V, T93S
notes: human IgG4 (S241P, L248E, Kabat); also called 3D12 VL3VH3 (var11)
B26: 3B04_var4 (antibody, human IgG4, V domains shown)
VH: B1 VH
VL: B1 VL with K45Q, P59S
notes: human IgG4 (S241P, L248E, Kabat); also called 3B04 VL1VH4 (var4)
B27: 3B04_var15 (antibody, human IgG4, V domains shown)
VH: B1 VH with L83F
VL: B1 VL with G24R, R38Q, Q40P, D56E
notes: human IgG4 (S241P, L248E, Kabat); also called 3B04 VL4VH3 (var15)
B28: 3D12_var2 (antibody, human IgG4, V domains shown)
VH: B1 VH with G26D, Y32S, M34I, M48I, D57G, A61N
VL: B1 VL with K45Q, P59S, F83V, T93S
notes: human IgG4 (S241P, L248E, Kabat); also called 3D12 VL1VH2 (var2)
B29: 3B04_var10 (antibody, human IgG4, V domains shown)
VH: B1 VH with M48I, A61S, L83F
VL: B1 VL with R38Q, Q40P
notes: human IgG4 (S241P, L248E, Kabat); also called 3B04 VL3VH2 (var10)
B30: 3D12_var15 (antibody, human IgG4, V domains shown)
VH: B1 VH with G26D, Y32S, M34I, D57G
VL: B1 VL with G24R, R38Q, Q40P, D56E, F83V, T93S
notes: human IgG4 (S241P, L248E, Kabat); also called 3D12 VL4VH3 (var15)
B31: 3D12_var6 (antibody, human IgG4, V domains shown)
VH: B1 VH with G26D, Y32S, M34I, M48I, D57G, A61N
VL: B1 VL with F83V, T93S
notes: human IgG4 (S241P, L248E, Kabat); also called 3D12 VL2VH2 (var6)
B32: 3B04_var14 (antibody, human IgG4, V domains shown)
VH: B1 VH with M48I, A61S, L83F
VL: B1 VL with G24R, R38Q, Q40P, D56E
notes: human IgG4 (S241P, L248E, Kabat); also called 3B04 VL4VH2 (var14)
B33: LTβR-Fc (Fc fusion, UniProt P36941 28-227, looked up)
chain: SQPQAVPPYASENQTCRDQEKEYYEPQHRICCSRCPPGTYVSAKCSRIRDTVCATCAENSYNEHWNYLTICQLCRPCDPVMGLEEIAPCTSKRKTQCRCQPGMFCAAWALECTHCELLSDCPPGTEAELKDEVGKGNNHCVPCKAGHFQNTSSPSARCQPHTRCENQGLVEAAPGTAQSDTTCKNPLEPLPPEMSGTMLM
modifications: biotinylated (EZ-Link NHS-LC-Biotin) in the competition assays
notes: also called LTBR-Fc; biotin-LTβR-Fc; not shown: Fc part of the bought fusion protein

Biological target: T1, human LIGHT (TNFSF14), full length, membrane-bound (214E allele) (human, UniProt O43557 1-240)
T1 construct: also called membrane LIGHT; human membrane LIGHT
T1 sequence (O43557 whole entry K214E): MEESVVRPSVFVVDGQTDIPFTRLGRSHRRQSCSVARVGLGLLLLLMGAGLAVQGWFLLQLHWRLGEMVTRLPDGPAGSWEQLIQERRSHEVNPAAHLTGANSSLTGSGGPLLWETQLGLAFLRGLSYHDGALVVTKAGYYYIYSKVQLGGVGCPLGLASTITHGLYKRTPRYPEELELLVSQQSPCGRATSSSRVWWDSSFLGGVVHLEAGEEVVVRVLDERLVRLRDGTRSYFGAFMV
Experiment: flow cytometry, EL4-LIGHT cells

| Binder | EC50 |
| --- | --- |
| B1 | 0.28 nM |
| B2 | 0.24 nM |
| B3 | 0.24 nM |
| B4 | 0.39 nM |
| B5 | 0.23 nM |
| B6 | 0.23 nM |
| B7 | 0.32 nM |
| B8 | 0.32 nM |
| B9 | 0.33 nM |
| B10 | 0.31 nM |
| B11 | 0.24 nM |
| B12 | 0.33 nM |
| B13 | 0.37 nM |
| B14 | 0.38 nM |
| B15 | 0.38 nM |
| B16 | 0.26 nM |

| Binder | EC50 |
| --- | --- |
| B17 | 0.27 nM |
| B18 | 0.26 nM |
| B19 | 0.27 nM |
| B20 | 0.24 nM |
| B21 | 0.36 nM |
| B22 | 0.32 nM |
| B23 | 0.22 nM |
| B24 | 0.33 nM |
| B25 | 0.34 nM |
| B26 | 0.26 nM |
| B27 | 0.39 nM |
| B28 | 0.47 nM |
| B29 | 0.49 nM |
| B30 | 0.22 nM |
| B31 | 0.31 nM |
| B32 | 0.3 nM |

Biological target: T1, human LIGHT (TNFSF14), full length, …
Experiment: flow cytometry, HEK293FF human LIGHT cells (value given in the method)

| Binder | EC50 |
| --- | --- |
| B33 | 15 nM |

Biological target: membrane LIGHT without residues 81-84 (EL4-NC-LIGHT cells) (human, UniProt O43557 1-240)
Sequence (O43557 other isoform, or with tags, fused parts or gaps): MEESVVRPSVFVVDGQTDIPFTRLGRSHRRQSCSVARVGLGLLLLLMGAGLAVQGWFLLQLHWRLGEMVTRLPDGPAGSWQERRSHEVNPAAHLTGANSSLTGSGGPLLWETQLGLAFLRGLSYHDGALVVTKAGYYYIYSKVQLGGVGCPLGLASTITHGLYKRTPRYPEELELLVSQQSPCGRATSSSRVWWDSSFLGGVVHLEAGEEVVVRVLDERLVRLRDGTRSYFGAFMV
Experiment: cell-based or functional assay

| Binder | IC50, inhibition of IL-8 secretion from HT-29 cells (EL4-NC-LIGHT cells) |
| --- | --- |
| B1 | 0.05 nM |
| B2 | 0.45 nM |
| B3 | 0.05 nM |
| B4 | 0.44 nM |
| B5 | 0.45 nM |
| B6 | 0.05 nM |
| B7 | 0.04 nM |
| B8 | 0.04 nM |
| B9 | 0.58 nM |
| B10 | 0.67 nM |
| B11 | 0.07 nM |
| B12 | 0.53 nM |
| B13 | 0.06 nM |
| B14 | 0.54 nM |
| B15 | 0.06 nM |
| B16 | 0.09 nM |

| Binder | IC50, inhibition of IL-8 secretion from HT-29 cells (EL4-NC-LIGHT cells) |
| --- | --- |
| B17 | 0.04 nM |
| B18 | 0.52 nM |
| B19 | 0.08 nM |
| B20 | 0.1 nM |
| B21 | 0.71 nM |
| B22 | 0.66 nM |
| B23 | 0.33 nM |
| B24 | 0.59 nM |
| B25 | 0.55 nM |
| B26 | 0.04 nM |
| B27 | 0.1 nM |
| B28 | 0.74 nM |
| B29 | 0.04 nM |
| B30 | 0.38 nM |
| B31 | 0.47 nM |
| B32 | 0.05 nM |
